Results on five variants are retold here after IntAct's records for PubMed 29892012.

To fix the notation:
B1: E3 ubiquitin-protein ligase RNF31 (Homo sapiens), Q96EP0 (parent)
chain: MPGEEEERAFLVAREELASALRRDSGQAFSLEQLRPLLASSLPLAARYLQLDAARLVRCNAHGEPRNYLNTLSTALNILEKYGRNLLSPQRPRYWRGVKFNNPVFRSTVDAVQGGRDVLRLYGYTEEQPDGLSFPEGQEEPDEHQVATVTLEVLLLRTELSLLLQNTHPRQQALEQLLEDKVEDDMLQLSEFDPLLREIAPGPLTTPSVPGSTPGPCFLCGSAPGTLHCPSCKQALCPACDHLFHGHPSRAHHLRQTLPGVLQGTHLSPSLPASAQPRPQSTSLLALGDSSLSSPNPASAHLPWHCAACAMLNEPWAVLCVACDRPRGCKGLGLGTEGPQGTGGLEPDLARGRWACQSCTFENEAAAVLCSICERPRLAQPPSLVVDSRDAGICLQPLQQGDALLASAQSQVWYCIHCTFCNSSPGWVCVMCNRTSSPIPAQHAPRPYASSLEKGPPKPGPPRRLSAPLPSSCGDPEKQRQDKMREEGLQLVSMIREGEAAGACPEEIFSALQYSGTEVPLQWLRSELPYVLEMVAELAGQQDPGLGAFSCQEARRAWLDRHGNLDEAVEECVRTRRRKVQELQSLGFGPEEGSLQALFQHGGDVSRALTELQRQRLEPFRQRLWDSGPEPTPSWDGPDKQSLVRRLLAVYALPSWGRAELALSLLQETPRNYELGDVVEAVRHSQDRAFLRRLLAQECAVCGWALPHNRMQALTSCECTICPDCFRQHFTIALKEKHITDMVCPACGRPDLTDDTQLLSYFSTLDIQLRESLEPDAYALFHKKLTEGVLMRDPKFLWCAQCSFGFIYEREQLEATCPQCHQTFCVRCKRQWEEQHRGRSCEDFQNWKRMNDPEYQAQGLAMYLQENGIDCPKCKFSYALARGGCMHFHCTQCRHQFCSGCYNAFYAKNKCPEPNCRVKKSLHGHHPRDCLFYLRDWTALRLQKLLQDNNVMFNTEPPAGARAVPGGGCRVIEQKEVPNGLRDEACGKETPAGYAGLCQAHYKEYLVSLINAHSLDPATLYEVEELETATERYLHVRPQPLAGEDPPAYQARLLQKLTEEVPLGQSIPRRRK
partner: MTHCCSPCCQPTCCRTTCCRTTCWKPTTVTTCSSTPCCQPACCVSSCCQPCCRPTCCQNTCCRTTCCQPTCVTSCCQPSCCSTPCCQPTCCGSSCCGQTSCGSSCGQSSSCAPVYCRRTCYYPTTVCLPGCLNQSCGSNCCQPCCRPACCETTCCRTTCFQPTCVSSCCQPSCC
B2: Keratin, type I cuticular Ha8 (Homo sapiens), O76015 (parent)
chain: MTSSYSSSSCPLGCTMAPGARNVSVSPIDIGCQPGAEANIAPMCLLANVAHANRVRVGSTPLGRPSLCLPPTCHTACPLPGTCHIPGNIGICGAYGENTLNGHEKETMQFLNDRLANYLEKVRQLEQENAELEATLLERSKCHESTVCPDYQSYFHTIEELQQKILCSKAENARLIVQIDNAKLAADDFRIKLESERSLRQLVEADKCGTQKLLDDATLAKADLEAQQESLKEEQLSLKSNHEQEVKILRSQLGEKLRIELDIEPTIDLNRVLGEMRAQYEAMLETNRQDVEQWFQAQSEGISLQDMSCSEELQCCQSEILELRCTVNALEVERQAQHTLKDCLQNSLCEAEDRFGTELAQMQSLISNVEEQLSEIRADLERQNQEYQVLLDVKTRLENEIATYRNLLESEDCKLPCNPCSTSPSCVTAPCAPRPSCGPCTTCGPTCGASTTGSRF
partner: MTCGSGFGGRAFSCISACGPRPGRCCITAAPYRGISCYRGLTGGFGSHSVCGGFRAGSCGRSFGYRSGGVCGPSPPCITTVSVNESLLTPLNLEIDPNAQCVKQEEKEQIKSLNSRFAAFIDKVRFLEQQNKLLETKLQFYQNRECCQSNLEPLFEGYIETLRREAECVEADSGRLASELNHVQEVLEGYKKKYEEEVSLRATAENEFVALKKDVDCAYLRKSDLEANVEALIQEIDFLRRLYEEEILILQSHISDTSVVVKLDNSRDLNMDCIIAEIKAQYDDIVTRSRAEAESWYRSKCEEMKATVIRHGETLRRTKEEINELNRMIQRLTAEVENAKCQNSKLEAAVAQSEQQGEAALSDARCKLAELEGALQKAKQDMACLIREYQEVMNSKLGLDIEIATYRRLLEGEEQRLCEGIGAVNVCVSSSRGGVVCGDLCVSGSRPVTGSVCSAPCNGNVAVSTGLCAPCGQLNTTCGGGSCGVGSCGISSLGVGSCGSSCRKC
B3: Inositol polyphosphate 5-phosphatase K (Homo sapiens), Q9BT40 (parent)
chain: MSSRKLSGPKGRRLSIHVVTWNVASAAPPLDLSDLLQLNNRNLNLDIYVIGLQELNSGIISLLSDAAFNDSWSSFLMDVLSPLSFIKVSHVRMQGILLLVFAKYQHLPYIQILSTKSTPTGLFGYWGNKGGVNICLKLYGYYVSIINCHLPPHISNNYQRLEHFDRILEMQNCEGRDIPNILDHDLIIWFGDMNFRIEDFGLHFVRESIKNRCYGGLWEKDQLSIAKKHDPLLREFQEGRLLFPPTYKFDRNSNDYDTSEKKRKPAWTDRILWRLKRQPCAGPDTPIPPASHFSLSLRGYSSHMTYGISDHKPVSGTFDLELKPLVSAPLIVLMPEDLWTVENDMMVSYSSTSDFPSSPWDWIGLYKVGLRDVNDYVSYAWVGDSKVSCSDNLNQVYIDISNIPTTEDEFLLCYYSNSLRSVVGISRPFQIPPGSLREDPLGEAQPQI
B4: Pre-B-cell leukemia transcription factor 4 (Homo sapiens), Q9BYU1 (parent)
chain: MAAPPRPAPSPPAPRRLDTSDVLQQIMAITDQSLDEAQARKHALNCHRMKPALFSVLCEIKEKTVVSIRGIQDEDPPDAQLLRLDNMLLAEGVCRPEKRGRGGAVARAGTATPGGCPNDNSIEHSDYRAKLSQIRQIYHSELEKYEQACREFTTHVTNLLQEQSRMRPVSPKEIERMVGAIHGKFSAIQMQLKQSTCEAVMTLRSRLLDARRKRRNFSKQATEVLNEYFYSHLNNPYPSEEAKEELARKGGLTISQVSNWFGNKRIRYKKNMGKFQEEATIYTGKTAVDTTEVGVPGNHASCLSTPSSGSSGPFPLPSAGDAFLTLRTLASLQPPPGGGCLQSQAQGSWQGATPQPATASPAGDPGSINSSTSN
partner: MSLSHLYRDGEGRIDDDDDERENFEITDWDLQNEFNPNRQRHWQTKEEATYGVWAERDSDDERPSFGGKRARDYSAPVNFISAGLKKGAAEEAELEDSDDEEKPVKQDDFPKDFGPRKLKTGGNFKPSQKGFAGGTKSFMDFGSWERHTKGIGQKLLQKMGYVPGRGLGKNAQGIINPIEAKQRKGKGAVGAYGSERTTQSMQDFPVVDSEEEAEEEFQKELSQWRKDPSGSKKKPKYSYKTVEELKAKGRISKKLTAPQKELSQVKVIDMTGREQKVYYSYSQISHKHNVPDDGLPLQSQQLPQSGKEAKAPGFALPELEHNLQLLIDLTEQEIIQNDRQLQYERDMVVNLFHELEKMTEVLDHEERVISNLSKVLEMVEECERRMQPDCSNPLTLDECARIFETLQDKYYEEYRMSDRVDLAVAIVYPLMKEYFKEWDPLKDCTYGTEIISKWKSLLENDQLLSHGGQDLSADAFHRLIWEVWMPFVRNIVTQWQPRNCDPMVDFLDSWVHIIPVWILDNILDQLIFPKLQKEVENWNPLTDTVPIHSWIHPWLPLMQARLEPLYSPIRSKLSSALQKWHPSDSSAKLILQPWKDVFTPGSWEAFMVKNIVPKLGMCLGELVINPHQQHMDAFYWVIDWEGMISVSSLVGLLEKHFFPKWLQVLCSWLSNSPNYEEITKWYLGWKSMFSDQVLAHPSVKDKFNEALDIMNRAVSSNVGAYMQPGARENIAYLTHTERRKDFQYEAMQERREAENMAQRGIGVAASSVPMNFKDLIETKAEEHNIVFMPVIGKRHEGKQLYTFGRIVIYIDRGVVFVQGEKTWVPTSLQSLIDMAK

The variants in one assay derive from B1. The following applies: with kra92_human KRTAP9-2, Q9BYQ4.
Regarding R646W, the “effect of a mutation on the interaction” value is listed as “with no effect”.

In the next assay the parent is B2. The following applies: with krt81_human KRT81, Q14533.
On to N270K, for which the “effect of a mutation on the interaction” value is “with no effect”.

Variants of B2 are the subject of the next assay. The following applies: with krt81_human KRT81, Q14533. The source holds these as a separate data set.
D306A: the “effect of a mutation on the interaction” value is “with no effect”.

In another assay the parent is B3. The following applies: with ar6p1_human ARL6IP1, Q15041.
Chain of ar6p1_human ARL6IP1, Q15041 (Q15041 whole entry): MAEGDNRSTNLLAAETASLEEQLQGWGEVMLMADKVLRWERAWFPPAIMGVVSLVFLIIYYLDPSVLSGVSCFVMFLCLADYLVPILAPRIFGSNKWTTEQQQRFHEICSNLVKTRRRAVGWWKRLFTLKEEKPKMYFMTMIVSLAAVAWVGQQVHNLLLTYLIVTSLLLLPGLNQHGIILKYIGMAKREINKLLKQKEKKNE
In the case of R437K, the “effect of a mutation on the interaction” value is “with no effect”.

The next assay covers variants of B4. The conditions noted are these: with tfp11_human TFIP11, Q9UBB9.
In the case of A247T, the “effect of a mutation on the interaction” value was “with no effect”.
